{"source": "paper PMC2173498", "test_in_all_cases": "SEC", "key": {"IBB-nucleoplasmin": {"target": "IBB-nucleoplasmin (UniProt P52292)"}, "M9-βgal": {"target": "M9-βgal (UniProt P09651)"}, "Thyroglobulin-NLS": {"target": "Thyroglobulin-NLS"}, "IBB-βgal": {"target": "IBB-βgal (UniProt P52292)"}}, "data": [{"substance": "IBB-nucleoplasmin (from UniProt P52292 1-65; P05221 1-149)", "values": [{"measurement": "stoichiometry N", "setting": "IBB-nucleoplasmin", "result": 10}]}, {"substance": "M9-βgal (from UniProt P09651-2 255-320)", "values": [{"measurement": "stoichiometry N", "setting": "M9-βgal", "result": 4}]}, {"substance": "Thyroglobulin-NLS", "values": [{"measurement": "stoichiometry N", "setting": "Thyroglobulin-NLS", "result": 2}]}, {"substance": "WT importin β (from UniProt Q14974 1-876) (natural protein)", "values": [{"measurement": "stoichiometry N (receptors per cargo)", "setting": "IBB-nucleoplasmin", "result": 5}, {"measurement": "stoichiometry N (receptors per cargo)", "setting": "IBB-βgal", "result": 4}]}, {"substance": "WT transportin (from UniProt Q92973 1-898) (natural protein)", "values": [{"measurement": "stoichiometry N (receptors per cargo)", "setting": "M9-βgal", "result": 4}]}]}
